Ends that are not written are not given here.

The target of the assay is T1, Hendra virus nucleoprotein C-terminal domain N_(TAIL) (residues 401-532) (Hendra virus, UniProt O89339 401-532).
T1 sequence: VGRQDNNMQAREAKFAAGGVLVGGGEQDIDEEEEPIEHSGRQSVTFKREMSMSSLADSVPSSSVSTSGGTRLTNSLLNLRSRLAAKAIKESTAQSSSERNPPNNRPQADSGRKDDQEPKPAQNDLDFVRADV
Nature of the assay: NMR titration; […]) ([…]); 298 K; […], pH 6.0. The settings on record: both partners purified.

B1: Hendra virus phosphoprotein X domain (XD, residues 654-707), 13C,15N labeled, without hexahistidine tag (domain or fragment)
chain: ADDASKDVVRTMIRTHIKDRELRSELMDYLNRAETDEEVQEVANTVNDIIDGNI
modifications: also: 13C,15N labeled
For B1, the binding result was “binds”.
